We go through 4 substances from patent publication US20070161078A1.

The target in assay [1] is MBP.NS1 H5N1B (ESEV) (influenza A H5N1) (UniProt Q6DP28). Description: direct binding assay titration.
Assay [2] has the same target. The experiment in a line: G assay titration.

As a reminder, the EC50 is the concentration giving half of the maximal effect. The low end stands for greater potency, the high end for weaker potency. On to “INADL d8 (from UniProt Q8NI35 1431-1525)”, for which the 50% effective concentration (EC50) in assay [1] turned out to be 6.1 µg/mL; in assay [2], 1.8 µg/mL.
“MAST2 d1 (from UniProt Q6P0Q8 1098-1197)” showed an EC50 in assay [2] of 0.9 µg/mL.
For the substance Magi3 d1 (from UniProt Q5TCQ9 18-106), the EC50 in assay [1] worked out at 5 µg/mL; in assay [2] it was 0.9 µg/mL.
Take “NeDLG d1,2 (from UniProt Q92796 124-316)”: the EC50 in assay [1] amounted to 0.8 µg/mL; in assay [2] it was 0.2 µg/mL.
